According to publication PMC9086285, “Catalytic Features and Thermal Adaptation Mechanisms of a Deep Sea Bacterial Cutinase-Type Poly(Ethylene Terephthalate) Hydrolase” (Frontiers in Bioengineering and Biotechnology, 2022):

How the values were obtained:
[1] = substrate: O=C(O)c1ccc(C(=O)OCCO)cc1; assay: HPLC substrate reduction, Michaelis-Menten fit; format: biochemical, unidentified prokaryotic organism; settings: 40°C, 20 mM Tris-HCl pH 8.0
From the text: (§1) HPLC substrate reduction, Michaelis-Menten fit on ICCG

[2] = substrate: O=C(OCCO)c1ccc(C(=O)OCCO)cc1; assay: HPLC substrate reduction, Michaelis-Menten fit; format: biochemical, unidentified prokaryotic organism; settings: 40°C, 20 mM Tris-HCl pH 8.0
From the text: as §1

[3] = substrate: O=C(O)c1ccc(C(=O)OCCO)cc1; assay: HPLC substrate reduction, Michaelis-Menten fit; format: biochemical, Pseudideonella sakaiensis; settings: 40°C, 20 mM Tris-HCl pH 8.0
From the text: (§2) HPLC substrate reduction, Michaelis-Menten fit on IsPETase

[4] = substrate: O=C(OCCO)c1ccc(C(=O)OCCO)cc1; assay: HPLC substrate reduction, Michaelis-Menten fit; format: biochemical, Pseudideonella sakaiensis; settings: 40°C, 20 mM Tris-HCl pH 8.0
From the text: as §2

purified protein [5] = substrate: CC(=O)Oc1ccc([N+](=O)[O-])cc1; assay: purified protein; format: biochemical, Marinactinospora thermotolerans; settings: 30°C, 20 mM Tris-HCl pH 8.0
purified protein [6] = substrate: CCCC(=O)Oc1ccc([N+](=O)[O-])cc1; assay: purified protein; format: biochemical, Marinactinospora thermotolerans; settings: 30°C, 20 mM Tris-HCl pH 8.0
purified protein [7] = substrate: CCCCCC(=O)Oc1ccc([N+](=O)[O-])cc1; assay: purified protein; format: biochemical, Marinactinospora thermotolerans; settings: 30°C, 20 mM Tris-HCl pH 8.0
purified protein [8] = substrate: CCCCCCCC(=O)Oc1ccc([N+](=O)[O-])cc1; assay: purified protein; format: biochemical, Marinactinospora thermotolerans; settings: 30°C, 20 mM Tris-HCl pH 8.0
purified protein [9] = substrate: CCCCCCCCCC(=O)Oc1ccc([N+](=O)[O-])cc1; assay: purified protein; format: biochemical, Marinactinospora thermotolerans; settings: 30°C, 20 mM Tris-HCl pH 8.0
purified protein [10] = substrate: CCCCCCCCCCCC(=O)Oc1ccc([N+](=O)[O-])cc1; assay: purified protein; format: biochemical, Marinactinospora thermotolerans; settings: 30°C, 20 mM Tris-HCl pH 8.0
purified protein [11] = substrate: CCCCCCCCCCCCCC(=O)Oc1ccc([N+](=O)[O-])cc1; assay: purified protein; format: biochemical, Marinactinospora thermotolerans; settings: 30°C, 20 mM Tris-HCl pH 8.0
purified protein [12] = substrate: CCCCCCCCCCCCCCCC(=O)Oc1ccc([N+](=O)[O-])cc1; assay: purified protein; format: biochemical, Marinactinospora thermotolerans; settings: 30°C, 20 mM Tris-HCl pH 8.0
purified protein [13] = substrate: CCCCCCCCCCCCCCCCCC(=O)Oc1ccc([N+](=O)[O-])cc1; assay: purified protein; format: biochemical, Marinactinospora thermotolerans; settings: 30°C, 20 mM Tris-HCl pH 8.0
[14] = substrate: O=C(O)c1ccc(C(=O)OCCO)cc1; assay: HPLC substrate reduction, Michaelis-Menten fit; format: biochemical, Marinactinospora thermotolerans; settings: 40°C, 20 mM Tris-HCl pH 8.0
From the text: (§3) HPLC substrate reduction, Michaelis-Menten fit on MtCut

[15] = substrate: O=C(OCCO)c1ccc(C(=O)OCCO)cc1; assay: HPLC substrate reduction, Michaelis-Menten fit; format: biochemical, Marinactinospora thermotolerans; settings: 40°C, 20 mM Tris-HCl pH 8.0
From the text: as §3

B1: ICCG (unidentified prokaryotic organism; D238C/F243I/S283C/Y127G) (protein)
chain: SNPYQRGPNPTRSALTADGPFSVATYTVSRLSVSGFGGGVIYYPTGTSLTFGGIAMSPGYTADASSLAWLGRRLASHGFVVLVINTNSRFDGPDSRASQLSAALNYLRTSSPSAVRARLDANRLAVAGHSMGGGGTLRIAEQNPSLKAAVPLTPWHTDKTFNTSVPVLIVGAEADTVAPVSQHAIPFYQNLPSTTPKVYVELCNASHIAPNSNNAAISVYTISWMKLWVDNDTRYRQFLCNVNDPALCDFRTNNRHCQ
notes: quadruple variant of LCC; only D238C/S283C given, the other two changes (F243I, Y127G) known from Tournier et al. 2020; expression construct not described; PDB 6THT given as the ICCG structure used for modelling
Km [1]: 430 ± 20 µM | kcat [1]: 0.0032 ± 0.0001 s⁻¹ | kcat/Km [1]: 6.75 ± 0.32 M⁻¹ s⁻¹ | Km [2]: 2580 ± 980 µM | kcat [2]: 2.29 ± 0.95 s⁻¹ | kcat/Km [2]: 1000 ± 170 M⁻¹ s⁻¹

B2: IsPETase (Pseudideonella sakaiensis) (protein)
chain: QTNPYARGPNPTAASLEASAGPFTVRSFTVSRPSGYGAGTVYYPTNAGGTVGAIAIVPGYTARQSSIKWWGPRLASHGFVVITIDTNSTLDQPSSRSSQQMAALRQVASLNGTSSSPIYGKVDTARMGVMGWSMGGGGSLISAANNPSLKAAAPQAPWDSSTNFSSVTVPTLIFACENDSIAPVNSSALPIYDSMSRNAKQFLEINGGSHSCANSGNSNQALIGKKGVAWMKRFMDNDTRYSTFACENPNSTRVSDFRTANCS
notes: purified enzyme; expression construct not described
Km [3]: 720 ± 20 µM | kcat [3]: 0.0139 ± 0.0006 s⁻¹ | kcat/Km [3]: 19.2 ± 0.45 M⁻¹ s⁻¹ | Km [4]: 4480 ± 540 µM | kcat [4]: 5.95 ± 0.62 s⁻¹ | kcat/Km [4]: 1330 ± 20 M⁻¹ s⁻¹

B3: MtCut (Marinactinospora thermotolerans DSM 45154) (protein)
chain: NPYERGPAPTESSVTAVRGYFDTDTDTVSSLVSGFGGGTIYYPTDTSEGTFGGVVIAPGYTASQSSMAWMGHRIASQGFVVFTIDTITRYDQPDSRGRQIEAALDYLVEDSDVADRVDGNRLAVMGHSMGGGGTLAAAENRPELRAAIPLTPWHLQKNWSDVEVPTMIIGAENDTVASVRTHSIPFYESLDEDLERAYLELDGASHFAPNISNTVIAKYSISWLKRFVDEDERYEQFLCPPPDTGLFSDFSDYRDSCPHTT
notes: 786 bp fragment, signal peptide removed, C-terminal His6 (pET22b(+), NdeI/XhoI), E. coli BL21(DE3), 34 kDa
Km (purified protein [5]): 550 ± 40 µM | kcat (purified protein [5]): 4.47 ± 0.28 s⁻¹ | kcat/Km (purified protein [5]): 8190 ± 340 M⁻¹ s⁻¹ | Km (purified protein [6]): 1330 ± 150 µM | kcat (purified protein [6]): 14.1 ± 1.51 s⁻¹ | kcat/Km (purified protein [6]): 10600 ± 100 M⁻¹ s⁻¹ | Km (purified protein [7]): 4610 ± 1040 µM | kcat (purified protein [7]): 41.7 ± 6.35 s⁻¹ | kcat/Km (purified protein [7]): 9230 ± 900 M⁻¹ s⁻¹ | Km (purified protein [8]): 2550 ± 280 µM | kcat (purified protein [8]): 79.4 ± 8.75 s⁻¹ | kcat/Km (purified protein [8]): 31100 ± 50 M⁻¹ s⁻¹ | Km (purified protein [9]): 4930 ± 530 µM | kcat (purified protein [9]): 69.8 ± 5.15 s⁻¹ | kcat/Km (purified protein [9]): 14200 ± 500 M⁻¹ s⁻¹ | Km (purified protein [10]): 1680 ± 120 µM | kcat (purified protein [10]): 30.5 ± 3.63 s⁻¹ | kcat/Km (purified protein [10]): 18100 ± 1200 M⁻¹ s⁻¹ | Km (purified protein [11]): 190 ± 40 µM | kcat (purified protein [11]): 9.87 ± 1.52 s⁻¹ | kcat/Km (purified protein [11]): 51400 ± 2900 M⁻¹ s⁻¹ | Km (purified protein [12]): 150 ± 10 µM | kcat (purified protein [12]): 4.79 ± 0.12 s⁻¹ | kcat/Km (purified protein [12]): 32500 ± 1000 M⁻¹ s⁻¹ | Km (purified protein [13]): 450 ± 20 µM | kcat (purified protein [13]): 14.3 ± 0.58 s⁻¹ | kcat/Km (purified protein [13]): 31800 ± 200 M⁻¹ s⁻¹ | Km [14]: 750 ± 110 µM | kcat [14]: 0.13 ± 0.01 s⁻¹ | kcat/Km [14]: 176 ± 14 M⁻¹ s⁻¹ | Km [15]: 3070 ± 930 µM | kcat [15]: 4.27 ± 1.15 s⁻¹ | kcat/Km [15]: 1410 ± 70 M⁻¹ s⁻¹
